Laboratory results as given in patent US20230329294A1 (CLARA FOODS, published 2023).

Target: bovine trypsin (bovine, UniProt P00760 24-246)
Test: cell-based or functional assay

Chain of bovine trypsin (P00760 24-246): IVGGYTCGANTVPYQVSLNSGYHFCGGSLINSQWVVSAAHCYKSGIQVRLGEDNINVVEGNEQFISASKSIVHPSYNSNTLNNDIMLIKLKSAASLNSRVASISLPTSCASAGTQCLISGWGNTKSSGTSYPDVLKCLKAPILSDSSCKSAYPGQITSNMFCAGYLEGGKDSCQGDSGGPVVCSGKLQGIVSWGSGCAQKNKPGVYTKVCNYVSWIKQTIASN

B1: native chicken ovomucoid (other)
chain: AEVDCSRFPNATDKEGKDVLVCNKDLRPICGTDGVTYTNDCLLCAYSIEFGTNISKEHDGECKETVPMNCSSYANTTSEDGKVMVLCNRAFNPVCGTDGVTYDNECLLCAHKVEQGASVDKRHDGGCRKELAAVSVDCSEYPKPDCTAEDRPLCGSDNKTYGNKCNFCNAVVESNGTLTLSHFGKC
modifications: complex branched N-linked glycosylation (that includes mannose)
  Trypsin inhibition activity: 13700 TIU/g
